These results are taken from patent US10301358B2, “Collagen imaging compositions” (Collagen Medical, LLC, priority 2015, dated 2019).

“Also recorded” adds a separate entry of the source. Bridge positions count the residues as written; N and C are the ends. Ends that are not written are not given here.

In series [1] the target is T1, collagen (Rattus norvegicus, UniProt P02454+P02466).
T1 construct: from tissue; host or cells: rat heart (normal and infarcted myocardium), in vivo
Kind of series: Uptake into fibrotic myocardial tissue, rat model of healed myocardial infarction. It is filed as in vivo, Sprague Dawley rats. To be noted: ~1 umol/kg, 3 weeks following infarction, sacrifice 60 minutes post-injection, tissue manganese. Here is the method:
Tissue samples from normal myocardium and infarcted myocardium are analyzed for manganese and hydroxyproline (collagen) content.

A short description of series [2]: Pharmacokinetics (Rat). In kind it is in vivo, Sprague Dawley rats. To be noted: 1.3 umol/kg bolus IV, plasma sampled 2-90 minutes post-injection, ICP-MS. Here is the method:
Compound ID No. 1 is formulated at pH 7.5 (TRIS buffer) and administered to Sprague Dawley rats (n=2) at dose of 1.3 umol/kg using a bolus IV injection. Plasma is sampled at 2, 5, 15, 30, and 90 minutes post-injection and analyzed for manganese content using ICP-MS.

Series [3] is described as follows: Myocardial perfusion imaging, canine LAD occlusion/reperfusion model. It is filed as in vivo. Here is the method: To mimic severe ischemia, a canine model is used in which an inflatable variable vascular occluder is placed around the left anterior descending coronary artery (LAD) to allow occlusion and reperfusion. Imaging is performed on a 3T clinical scanner 4 days after implantation of the occluder. The conventional saturation recovery pulse sequence for stress perfusion imaging is compared with a segmented inversion method. The purpose of the segmented inversion method is to leverage the steady-state properties of Compound ID No. 1. This segmented inversion recovery pulse sequence provides greater T1 weighting, higher spatial resolution, and greater myocardial tissue contrast. Additionally, since imaging is delayed, the entire heart can be imaged. After baseline MRI scanning, the balloon is inflated. […]
To assess relative perfusion, labeled microspheres are administered at 3 timepoints in the study. […] At autopsy under ultraviolet light, the hypo-perfused myocardium is differentiated from normal myocardium due to the lack of fluorescence in the hypo-perfused tissue. Based on the fluorescence, a sample of the ischemic territory and a sample of the remote myocardium are taken for ex vivo analysis. These tissue samples are weighed, digested in nitric acid, and analyzed for the elements La, Au, Lu (the three microsphere injections) and manganese (Compound ID No. 1) using ICP-MS. […]

Series [4] in a line: Uptake into fibrotic liver tissue, bile duct ligated (BDL) rats. It is filed as in vivo, Sprague-Dawley rats. Particulars: ~7.5 μmol/kg, sacrifice after 90 min, BDL vs sham. As for the experimental part:
Bile duct ligated (BDL) rats are selected to assess the uptake of the complexes in fibrotic liver tissue as compared to sham operated animals. In this model, the common bile duct is surgically tied off and the resultant cholestasis results in fibrosis around the bile ducts. Laparotomy is performed in Sprague-Dawley rats with double ligation of the common bile duct with a section between the two ligatures (2-3% isoflurane anesthesia). […] Fibrosis is evident 15 days after ligation and increases with time up to 30 days after ligation, providing defined endpoints for imaging of moderate and severe fibrosis.
Studies are conducted by injecting Compound ID. No. 1 at a dose ˜7.5 μmol/kg. After 90 min, the animals are sacrificed and the 4 liver lobes and abdominal muscle are removed and the manganese concentration quantified by ICP-MS and collagen content quantified using hydroxyproline concentration.

T1 sequence (P02454 152-1207): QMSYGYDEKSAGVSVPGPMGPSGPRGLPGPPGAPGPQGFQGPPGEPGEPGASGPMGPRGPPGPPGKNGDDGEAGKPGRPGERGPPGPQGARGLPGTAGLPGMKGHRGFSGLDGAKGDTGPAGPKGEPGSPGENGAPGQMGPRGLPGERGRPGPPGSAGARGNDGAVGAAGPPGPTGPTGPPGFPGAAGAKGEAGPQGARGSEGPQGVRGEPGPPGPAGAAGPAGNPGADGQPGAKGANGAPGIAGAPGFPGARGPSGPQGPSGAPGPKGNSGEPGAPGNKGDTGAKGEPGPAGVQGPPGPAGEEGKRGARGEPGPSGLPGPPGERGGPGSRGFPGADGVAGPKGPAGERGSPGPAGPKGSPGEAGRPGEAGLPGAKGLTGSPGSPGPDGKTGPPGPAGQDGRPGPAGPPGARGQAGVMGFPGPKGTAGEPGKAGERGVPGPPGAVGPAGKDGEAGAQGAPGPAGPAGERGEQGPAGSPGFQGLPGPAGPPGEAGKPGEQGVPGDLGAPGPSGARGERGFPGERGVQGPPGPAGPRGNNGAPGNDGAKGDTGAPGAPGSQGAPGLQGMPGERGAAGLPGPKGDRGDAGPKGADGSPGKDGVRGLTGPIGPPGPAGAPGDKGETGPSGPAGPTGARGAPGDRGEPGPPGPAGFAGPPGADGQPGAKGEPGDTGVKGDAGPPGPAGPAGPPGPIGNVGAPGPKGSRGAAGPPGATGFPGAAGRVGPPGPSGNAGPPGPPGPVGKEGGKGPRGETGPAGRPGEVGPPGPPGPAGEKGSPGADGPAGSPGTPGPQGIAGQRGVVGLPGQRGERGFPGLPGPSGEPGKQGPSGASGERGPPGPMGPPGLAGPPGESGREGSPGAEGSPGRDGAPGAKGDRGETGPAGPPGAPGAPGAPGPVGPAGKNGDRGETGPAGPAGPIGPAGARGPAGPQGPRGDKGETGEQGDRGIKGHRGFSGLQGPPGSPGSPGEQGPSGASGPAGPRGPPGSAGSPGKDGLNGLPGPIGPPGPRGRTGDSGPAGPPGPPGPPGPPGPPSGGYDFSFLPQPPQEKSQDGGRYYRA
T1 sequence (P02466 86-1125): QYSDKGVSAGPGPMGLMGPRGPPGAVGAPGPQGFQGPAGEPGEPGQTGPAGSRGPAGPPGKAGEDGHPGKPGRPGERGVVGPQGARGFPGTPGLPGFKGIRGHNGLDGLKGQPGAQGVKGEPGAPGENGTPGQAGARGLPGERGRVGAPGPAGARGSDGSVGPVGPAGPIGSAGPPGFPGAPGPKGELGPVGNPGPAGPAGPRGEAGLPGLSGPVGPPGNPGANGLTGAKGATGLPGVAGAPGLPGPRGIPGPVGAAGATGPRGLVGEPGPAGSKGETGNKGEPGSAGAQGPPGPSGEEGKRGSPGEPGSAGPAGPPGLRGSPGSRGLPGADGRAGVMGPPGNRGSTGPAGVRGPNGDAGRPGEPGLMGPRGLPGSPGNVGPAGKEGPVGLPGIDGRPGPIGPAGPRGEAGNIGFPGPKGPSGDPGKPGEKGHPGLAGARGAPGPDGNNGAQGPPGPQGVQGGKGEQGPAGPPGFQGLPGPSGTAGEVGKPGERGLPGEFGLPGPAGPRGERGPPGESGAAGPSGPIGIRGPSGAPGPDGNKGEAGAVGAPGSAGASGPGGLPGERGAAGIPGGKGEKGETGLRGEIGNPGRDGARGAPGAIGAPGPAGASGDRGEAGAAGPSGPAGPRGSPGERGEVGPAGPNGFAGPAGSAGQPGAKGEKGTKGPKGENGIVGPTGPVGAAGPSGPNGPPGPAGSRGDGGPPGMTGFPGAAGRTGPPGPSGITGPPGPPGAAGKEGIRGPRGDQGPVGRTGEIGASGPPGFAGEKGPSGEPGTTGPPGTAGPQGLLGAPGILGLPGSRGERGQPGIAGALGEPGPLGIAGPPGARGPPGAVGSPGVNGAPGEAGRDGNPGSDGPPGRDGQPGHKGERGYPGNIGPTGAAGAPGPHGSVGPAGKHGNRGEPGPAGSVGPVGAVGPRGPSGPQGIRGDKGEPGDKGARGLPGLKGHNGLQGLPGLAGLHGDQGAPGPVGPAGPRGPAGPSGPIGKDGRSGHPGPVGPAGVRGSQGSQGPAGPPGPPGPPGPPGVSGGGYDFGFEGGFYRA

For “Compound ID No. 4: MnCDTAGA linked to terminal nitrogen or lysine epsilon amino groups of peptide SEQ ID No. 4, C-terminus —NH2 amide; FIG. 4 (KWHCYTKFPHHYCVY; disulfide 4-13 (inferred); not fully specified (C-terminus); printed as K-W-H-C-Y-T-K-F-P-H-H-Y-C-V-Y-Bip; also: MnCDTAGA on N-terminal amine or lysine ε-amino group)”, the “uptake in normal vs. scarred myocardium” value in series [1] is “greater binding in fibrotic cardiac tissue as compared with normal myocardial tissue”.
As for “Compound ID No. 1: MnCDTAGA conjugate of cyclic collagen binding peptide SEQ ID No. 1 (G-K-W-H-C-T-T-K-F-P-H-H-Y-C-L-Y-Bip), amidated C-terminus; FIG. 1 (GKWHCTTKFPHHYCLY; MnCDTAGA conjugate; cyclic disulfide; C-terminal amide)”, the “pharmacokinetic profile (plasma manganese content)” value in series [2] is on record as “rapid initial blood clearance”. Besides, the “uptake in normal vs. scarred myocardium” value in series [1] is reported as “greater binding in fibrotic cardiac tissue as compared with normal myocardial tissue”. Also, the “MR visualization of myocardial perfusion defect” value in series [3] (7.5 μmol/kg i.v. bolus one minute after coronary artery occlusion, 3T scanner, listed as 1) was “readily visualized; also recorded: positive image contrast in the normally perfused myocardium”. Also, the “Mn concentration in ischemic vs normal myocardium ex vivo” value in series [3] (7.5 μmol/kg i.v., sacrifice ca. 120 minutes post injection, ICP-MS) is on record as “preferential deposition in normal vs ischemic cardiac tissue”. For the same substance, in series [4], the “uptake into fibrotic liver tissue (manganese vs hydroxyproline)” value is “consistent with uptake of Compound ID No. 1 into fibrotic-rich liver tissue”.
For the substance “Compound ID No. 2: MnCDTAGA linked to terminal nitrogen and lysine epsilon amino groups of peptide SEQ ID No. 2, C-terminus —NH2 amide; FIG. 2 (MnCDTAGA-K(MnCDTAGA)WHCTTK(MnCDTAGA)FPHHYCLY; disulfide 4-13 (inferred); not fully specified (C-terminus); printed as K-W-H-C-T-T-K-F-P-H-H-Y-C-L-Y-Bip)”, the “uptake in normal vs. scarred myocardium” value in series [1] is reported as “greater binding in fibrotic cardiac tissue as compared with normal myocardial tissue”.
